Two substances from article PMC2872155 can be followed below.

For series [1], the system named is VP35 IID (Zaire ebolavirus). Put plainly: ITC. The conditions noted are these: not given in the material (Methods absent).
In series [2] the test system is VP35 IID (Zaire ebolavirus). Put plainly: NMR competition. The conditions noted are these: 5'ppp; not given in the material (Methods absent).
Series [3] deals with VP35 IID (Zaire ebolavirus). The series is described as follows: NMR. To be noted: 5'ppp; not given in the material (Methods absent).

As for 8 bp dsRNA, in series [1], the dissociation constant Kd is 500 nM. Turning to IVT-8 bp dsRNA, the results for the binding signal (relative HSQC peak intensity) in series [2] and in series [3] were 0.42 and 0.36, respectively.
